Reference: the DeepSol protein solubility set

Assay: soluble on expression in E. coli; label from the status in PepcDB or PDB records

Sequence	soluble on expression in E. coli
MGSDKIHHHHHHMDKIYVLDTNVLLQDPLSIFSFETNEVVIPAVVLEEVDSKKRYMDEVGRNARYVSKLIDKFREIGKLHESIPLENGGTFRIELNHRSFVQLQDIFVEKTNDNRILAVAKNLSLEEQEKEDGKSVILVSKDVLVRVKADAIGLKAEDYLSDRVIEVENIYSGFLEGYISKEQLDYFYEKGELPLSEIANHPFYPNQFVVMKDALGGSSSALGIVDHLGKKVKKLIFHNEQVWGIRPRNVQQIMGLELLLREDIPLVTLTGKAGTGKTLLALASGLMQTEDLGLYKKLLVARPIVPVGKDIGYLPGEKEEKLRPWMQPIFDNLEYLFNTKKPGELDAILAGMGSIEVEALTYIRGRSIPDQFIIIDEAQNLTKHEVKTILTRVGEKSKIVLMGDPQQIDHPYLDEYNNGLTYVVEKFKEQRISGHVKFVKGERSNLAQLAADLL	not soluble
SPNALDISRTYPTLHVLIQFNHRGLEVRLFRHGQFWAETRADVILRSKTKQVSFLSNGNYPSMDSRAPWNPWKNTYQAVLRAEPCRVTMDIYYKRVRPFRLPLVQKEWPVREENVFGLYRIFNAHYAGYFADLLIHDIETNPAPFMFRPRKQVFQTQGAAVSSMAQTLLPNDLASKAMGSAFTALLDANEDAQKAMKIIKTLSSLSDAWENVKETLNNPEFWKQLLSRCVQLIAGMTIAVMHPDPLTLLCLGTLTAAEITSQTSLCEEIAAKFKTIFITPPPRFPTISLFQQQ	not soluble
GSHVSKREDGRLDHELRPVIITRGFTENPAGSVLIEFGHTKVLCTASVTEGVPRWRKATGLGWLTAEYAMLPSATHSRSDRESVRGRLSGRTQEISRLIGRSLRACIDLAALGENTIAIDCDVLQADGGTRTAAITGAYVALADAVTYLSAAGKLSDPRPLSCAIAAVSVGVVDGRIRVDLPYEEDSRAEVDMNVVATDTGTLVEIQGTGEGATFARSTLDKLLDMALGACDTLFAAQRDALALPYPGVLPQGPPPPKAFGT	soluble
MQLILLLVSLLMLIATFIEARDSDIDKKSLRTERLGFCPRYETWRKCGNGCEKSCTHPRQPPFSQCKLPCIPYSCRCNPGFYRDNQGTGRCVRLRRCKKW	not soluble
MDHDKSKRLPPSYYTLLEASQEKETTSTKILAQYLDRSPATVRTQFQRIMEFLDVSSRYGALREAEKRGLIRRNKRATSAHHQENRSSL	not soluble
MDFAFEKVARDWFVRWSKGRSEKYAGQVMRNFERWVFPAIGNLDIRQVRTADVVGCLRVMEARGIVDTLRKTKNSLKMVFAFAVGSGMMEINPVAQIGSGVFERLEHHHHHH	not soluble
MKLTGSKILIECLKEQGVDTIFGFPGGAVLNIYDELYRSQNEIRHILTSHEQGAAHAADGYARATGKVGVCLATSGPGATNLVTGIATAYMDSVPMVAITGQVATPLLGKDSFQEVDITGITMPITKHNFIVKDVNKLADIVRRAFYIAKEGRPGPVLIDICKDVTAAYAEYEPKSPQELPEVPVRVDEKCIDEAAEAINKAERPVILAGGGVSIAGANKELFEFATNAQIPVTTTLMGMGAFPGTHELFMGMIGMHGTKTTNMAVSESDLFIAIGARFSDRVISNVQRFAPKASIMHIDIDPAEIGKNINVQYALEGNIKKILQLLNERVKKKECTDWVRKINEWKELYPLKYPQDDKLHPQYIIERMYELTKGEAIITTEVGQHQMWAAQFYKYTSPRQFLSSGGLGTMGYGLGACIGARIGRPDKKVINVAGDGSFRMNCNELATAVEYKLPIIVAIFNNHALGMVRQWQQLFYGGRYSSTSLDRCTDFKALAEAYGAIGINVTAKEEVDEALNRALASEDTPVVINFEIDKDEMVFPIVPPGAPLSELIEE	not soluble
MKVIDLSQTFENNMSQFPGTPKIQLKAVTSVEESGYQVTDFHSVVHVGTHCDAPAHFISGATTIDQLPLDQFVGEAVLIDVTHIQERKLPKTVLHNTDIKEGDIVIFHSNLSTKWNTEAYEKEAFYLSEELAKELVRLKVKSIGLDFISPDEVTTETSPIHHILLGNDIYLIENLTNLDAIEEKRFFFSAAPLKIKNSDGAFARAFAVIFLEHHHHHH	soluble
DPFEDLDALGSILEEKYGLLEAHVVFSPTPDYAGITHDLSRYGAEYMHETVKDGDIVGVSWGTTMYQIAQNMQPKQVKGVEVVQLKGGISHSRVNTYSAETIQLFAEAFQTMPRYLPLPVVFDNADVKRMVEKDRHIERIIEMGKQANIALFTVGTVRDEALLFRLGYFNEEEKALLKKQAVGDICSRFFDAKGNICSSAINDRTIGVELQDLRLKERSILVAGGSRKVSSIHGALTGKYANVLIIDQHTARALVNDL	not soluble
MSLDPEDVYDGGYGSKHSPVQLRIGNGGAGQSGLVKELADAFIKSKVDSGSAPFKVAWYKSDTTVTINYLKDGIVDVGITYSPVAERISIKHGISESPSYYAFRDHFMLIGPPSNPAKLSGDSDIADMFSKMHDAAEAGNTKPPVRFLSRYDKSATNIKEAELWLSIGQVPWATAYSTWYHQYITFPIQALTAAILLREYTITDYGTYLSIPRGLRDQMVIYKKGTNDADDPLLNPAHLLVGARAKNAEMAKEFAKWLVSKEGGQKVIEGFKKDGQQLYSPAPYRHEGHHHHHH	soluble
MSTPTGQPIGLGLPDAPLPVLAPRRKTRQLMVGNVGVGSDYPVSVQSMTTTKTHDVNATLQQIAQLTASGCDIVRVACPKTVDAEALPAIAKKSPIPVIADIHFQPKYIFSAIDAGCAAVRVNPGNIKEFDGRVKEVAKAAGDAGIPIRIGVNAGSLDKRIMEKYGKATPEALVESALWEAGLFEDCGFGDIAISVKHNDPVIMVEAYRQLAAQSDYPLHLGVTEAGPAFQGTIKSSVAFGSLLSQGIGDTIRVSLSADPVEEIKVGDQILQSLNLRKRGLEIVSCPSCGRAQVDVYSLAEEVTAALDGMSIPLRVAVMGCVVNGPGEARDADLGVASGNGKGQIFVRGEVIKTVPESQIVETLIEEAVRLAEAEGLEIEEGAGPQVKITR	not soluble
TTCDELISLCDEHHMSVADVVWANETAMRSAVQVRSDLDTVWHVMRRCVQHGCNTNQTVLPGGLDVPRRAPKMYARLASNSDVLKRDGRRSDAVLESSDAAWVDLFALAVSEENAAGGRIVTAPTNGAAGVIPAVLHYYWHFVDHADEDGVVTFLLTAGAIGYLFKRNASISGAEVGCQGEVGTACSMAAAGLCAVMGGTPHQVENAAEIGIEHNLGLTCDPVGGLVQIPCIERNAMAANTAINAVRMAMLGDGTHIVSLDQAIKTMKDTGEDMMAKYKETSKGGLAVN	not soluble
MIRILHTADWHLGQTFFGYDRAEEHKAFLDWLAEEIRQNEIDALVIAGDVFDVSNPSAASQRIYYEFIYRVTAENPKLQIVIVAGNHDSAARLEAPLPLLQAMRTEVRGVVRKLEGGEIDYDHLTIELKNREGEVEVLCMAVPFLRQGDYPVVETEGNPYMEGVRELYARLLQRLWARRKTNQAILAVGHLQATGSEIAEKDYSERTVIGGLECVSPDTFSEKIAYTALGHIHKAQRVSGRENVRYAGSPIPMSFAEKHYHHGVVMVILDEGCAVDIRRIECPQSIPLISVPGGEAASPEKIIEILRDLPEVDGEAPYLEVKVLLEEPEPMLRQEIEEALAGKKYRLARIVSAYRQEERVEKEVDGWKKGLQEMSPLQIAQSAFEKVYQAEMPADLTDLFQEAYISATRKEEEEGE	not soluble
MGSDKIHHHHHHMGYRTLKSIFHEHNESKMKEEYTKRFNSLASFNTNINIIPMENGKKVNDLEYPLFFMVTKNLSKKQELISINSRKIDRALNSLPYAAREQYFNDLLIDELQSTNEIENVFSTKQEIAHALNNQASEFLKFRGLVDQYKEIELNKKIKVDNVRDIRAIYDKLVSNEINEQDKLDGELFRKNFVGVHDGSTNKYIHVGLQPETKIVEYIGEMLTFLKYFDAPQPFKIMASHYLFEYIHPFYDGNGRVGRFIIAKLLSDYYDNYTALTFSYVINRNKSKYYKAFMTASNHLNCGDLTEFIDTMLELLIAGQERILDELIPKMDATEKLTLYLTSHYKQIDYEFLYLLSMDKLFGNKRNRLTLIDLENILGVGRVKINNTIKKYDNYLVKIKSRPIIYEISDEFLNSIIK	not soluble
MDVLSGTQVTDPEQLIVNREEVDDIELKMAELLSDLERKVLALYLDGRSYQEISEELNRHVKSIDNALQRVKRKLEKYLEYREISL	not soluble
MRSQSTHSQSMRSDIYLLLATLLRDVPSAELCAFLAELDFEANGTEMAKAWQAMSAAAQNAQADSLADEYQELFIGIGRGEVVPFASWHLTGSLMEKPLADIRDDLSRLGLERDEQVREPEDHISALCETMAYLCEESGDENAAEETQQAFFNRHIAPWFGKLVSQIRQAPHAQFYLAVAQLLDAFLSLEQVAMTQAPSSRKNRYRIEVKNLTDKAEQ	not soluble
MAFLLALDQGTTSSRAILFTLEGRPVAVAKREFRQLYPKPGWVEHDPLEIWETTLWAAREVLRRAGAEAGEVLALGITNQRETTLLWDRKTGKPLHNAIVWQDRRTTPLCEALRAKGLEPLFRERTGLLFDPYFSGTKLVWLLENVPGLKARAEGGGVAFGTVDTWLIWNLTGGKVHATDPTNASRTLLFNLHTLAWDPELLEALGIPAALLPEVRPSDGDFGETLPELLGAPVPIRGVLGDQQAALFGQAALGGGEGKCTYGTGAFLLLNTGKRPVLSEKGLLATVAWSLGGRATYALEGSLFVAGAAVGWLKEVGLIRESAEVEALAASVEDTGDVYFVPAFTGLGAPYWDPYARGTLLGLTRGTSRAHLARAALEGVAFQVRDVVLAMEEEAGVRLKVLKADGGMAQNRLFLKIQADLLGVPVAVPEVTETTALGAALMAGVGAGALSPEDVAGRFREAERFLPTMPEGRREALYRRWREAVERAKGWAREG	soluble
MRTKYILELFDTSEQHKPIARFESSTPFTAASVGERFDDIGWERLDGAGKIASPLSPKRYTVHSAKHLVIVEAGALVIKYCLNLEPFSGPSSPVWGDE	not soluble
MKMQKELSVYLKQILQAAQYIRLYTDKMDYGQFSADTKTVQAVVFNLFLIGENATHILKSYPEFAEETKYLNWIGMRGYCAIGLPMATLK	not soluble
AHHHHHHGSPVYEINGIKPKIHPTAYVDENAVIIGDVVLEEKTSVWPSAVLRGDIERIYVGKYSNIQDNVSIHTSHGYPTEIGEYVTIGHNAVVHGAKIGNYVIIGMGAIILDGAKIGNHVIIGAGALVPPNKEIPDYSLVIGVPGKVVRQLSEEEIEWTKKNAEVYVELAEKHMKGRKKIMIYRIISHIPSIFFKPAYDLYERYLLEKVKAGVIPKHVAIIMDGNRRWARKREKPPWYGHFFGSKKLEEIVEWCHELGIRILTVYAFSTENFKRSKEEVDRLMKLFEEKFRELVTDRRVHEYGIRVNVMGRKELLPKNVREAAEEAERVTRKYNNYFLNIALAYGGRSEIVDAIKDIVNDVLEGRLKLEDINEEIVRKYLYVPNMPDPDIVIRTGGEVRISNFLLYQIAYSELFFVDVYFPEFRKIDFLRIIREFQKRERRFGR	soluble
MGSDKIHHHHHHMSRFAACFEDLPDPRGRNARHPLTSILFIAVAAIVCGAESCTDMADFGVAKKKWLKTIVPLPYGIPSHDTFSTVFRHLDPDAFDAAFRRLTASFAQGLEGVVAIDGKAVRGAYRRAAKATPLHFVNVWAAGPGLVIGQKLAPGRNEVQGALDALALLALEGSIVTADALHCRPDTARAILAAGGDYALALKANQPGLLAQALARIEDADHVESIQIAAETAHDRTETRRASVVAVDDINFPGLQAIGCVETTSRHTNGHLTSHVRYFLLSTTMSPSALIEVVRTHWQIENKLHWVLDVHFREDAARNRKDNGPQNIAFLRKIALNLLRSHPDKASIRRKIKKAGWDDQFLTSLIAHMR	not soluble
